In assay [1] the target is T1, monkey CD22 (full length, on HEK293T cells) (monkey).
T1 construct: NCBI XP_014979161.2; also called HEK293T-monkey CD22; HEK293T cells overexpressing monkey CD22
T1 chain: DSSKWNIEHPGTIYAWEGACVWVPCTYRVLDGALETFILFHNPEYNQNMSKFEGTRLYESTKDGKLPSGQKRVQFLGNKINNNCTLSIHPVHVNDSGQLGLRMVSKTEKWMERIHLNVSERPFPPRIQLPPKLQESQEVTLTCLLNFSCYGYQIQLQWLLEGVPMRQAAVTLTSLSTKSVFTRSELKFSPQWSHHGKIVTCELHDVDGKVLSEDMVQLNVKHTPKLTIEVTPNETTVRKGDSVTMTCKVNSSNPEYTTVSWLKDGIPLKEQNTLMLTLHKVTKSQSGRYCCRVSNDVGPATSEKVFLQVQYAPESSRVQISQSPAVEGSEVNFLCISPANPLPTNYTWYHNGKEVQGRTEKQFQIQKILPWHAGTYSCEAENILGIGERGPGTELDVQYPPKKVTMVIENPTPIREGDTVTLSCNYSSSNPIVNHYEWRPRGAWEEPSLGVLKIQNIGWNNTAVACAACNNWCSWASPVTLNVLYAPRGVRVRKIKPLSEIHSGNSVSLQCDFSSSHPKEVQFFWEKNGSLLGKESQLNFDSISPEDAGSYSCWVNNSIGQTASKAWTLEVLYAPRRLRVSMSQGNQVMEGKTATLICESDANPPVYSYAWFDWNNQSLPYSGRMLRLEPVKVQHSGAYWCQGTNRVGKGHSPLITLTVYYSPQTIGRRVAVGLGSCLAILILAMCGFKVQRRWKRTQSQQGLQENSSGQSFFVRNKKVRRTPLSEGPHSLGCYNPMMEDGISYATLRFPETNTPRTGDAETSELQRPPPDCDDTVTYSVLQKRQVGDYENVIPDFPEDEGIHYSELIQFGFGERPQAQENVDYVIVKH
Nature of the assay: FACS on HEK293T-monkey CD22 cells. An excerpt:
The required cells were scale-up cultured in a T-75 cell culture flask to the logarithmic growth phase. For the adherent cell CHO-K1, the medium was aspirated, the cells were washed 2 times with PBS buffer, and then digested with trypsin. After the digestion was terminated, the cells were washed 2 times with PBS buffer. For suspension cell Raji, the medium supernatant was directly centrifuged and discarded, and the cell pellet was washed 2 times with PBS. After counting the cells in the previous step, the cell pellet was resuspended with [PBS+2% (w/w) BSA] blocking solution to 2×10⁶ cells/ml, and added to a 96-well FACS reaction plate at 50 μl/well, and then the chimeric antibody test sample was added at 50 μl/well, and incubated on ice for 2 hours. The mixture was centrifuged and washed 3 times with PBS buffer, Alexa Flour 488-labeled secondary antibody (purchased from Invitrogen, catalog number: A-11013) was added at 50 μl/well, and incubated on ice for 1 hour. The obtained mixture was centrifuged and washed 5 times with PBS, and FACS (FACS Canto™, purchased from BD Company) was used for detection and result analysis. Data analysis was performed by software (CellQuest) to obtain the mean fluorescence density (MFI)of the cells. And then software (GraphPad Prism8) was used for analysis, data fitting, and EC50 value calculation. […]

Assay [2] addresses T1, monkey CD22 (full length, on HEK293T …). Nature of the assay: FACS, HEK293T-monkey CD22 cells (293T as parent cells). From the text:
The required cells were scale-up cultured in a T-75 cell culture flask to the logarithmic growth phase. For the adherent cell CHO-K1, the medium was aspirated, the cells were washed 2 times with PBS buffer, and then digested with trypsin. After the digestion was terminated, the cells were washed 2 times with PBS buffer. For suspension cell Raji, the medium supernatant was directly centrifuged and discarded, and the cell pellet was washed 2 times with PBS. After counting the cells in the previous step, the cell pellet was resuspended with [PBS+2% (w/w) BSA] blocking solution to 2×10⁶ cells/ml, and added to a 96-well FACS reaction plate at 50 μl/well, and then the chimeric antibody test sample was added at 50 μl/well, and incubated on ice for 2 hours. The mixture was centrifuged and washed 3 times with PBS buffer, Alexa Flour 488-labeled secondary antibody (purchased from Invitrogen, catalog number: A-11013) was added at 50 μl/well, and incubated on ice for 1 hour. The obtained mixture was centrifuged and washed 5 times with PBS, and FACS (FACS Canto™, purchased from BD Company) was used for detection and result analysis. Data analysis was performed by software (CellQuest) to obtain the mean fluorescence density (MFI)of the cells. And then software (GraphPad Prism8) was used for analysis, data fitting, and EC50 value calculation. […] The same method was used to detect the binding of the chimeric antibodies to endogenous CD22-negative cell MoLT4 cells (purchased from ATCC, CRL-1582) and CHO-K1 cells.
HEK293T-monkey CD22 cells were subjected to FACS detection and data analysis according to the method in Example 5.2.

B1: F2.343.16 (antibody, human IgG1, lambda, V domains shown)
VH: QVQLKQSGPGLVQPSQSLSITCTVSGFSLTGYGVQWVRQSPGKGLEWLGVIWGGGGTDYNAAFISRLNIIKDNSKSQVFFKMNSLQADDTAIYYCARYSKYGHFDVWGTGTAVTVSS
VL: QAVVTQESALTTSPGETVTLTCRSSTGAVTTSNYANWVQEKPDHLFTGLIGGTYNRVPGVPARFSGSLIGDKAALTITGAQTEDEAIYFCALWYSNHFWVFGGGTKLTVLG
notes: Human-murine chimeric IgG1, lambda
Take B1: in assay [1], the binding result is recorded as “no binding”.

B2: F2.180.16 (antibody, human IgG1, lambda, V domains shown)
VH: EVKLVESGGGLVLPGGSLKISCAASGFTFSDYYMYWIRQTPDKRLEWVAYISNTGYSTFYPDSVKGRFTVSRDNAKNTLYLQMSRLQSEDTAMYYCARHGILYAMDYWGQGTSVTVSS
VL: QPVLTQSSSASFSLGASAKLTCTLSSQYSTYTIGWYQQQPLKPPKYVMELKHDGSRHTGDGIPDRFSGSSSGADRYLSISNIQPEDEATYICGVGDTIKEQFMYVFGGGTKVTVLG
notes: as for B1
With B2, the binding result in assay [2] is recorded as “no binding (tested: 10 nM)”.

B3: F1.280.1 (antibody, human IgG1, kappa, V domains shown)
VH: QIQLVQSGPELKKPGETVKISCKASGYTFTTYGMSWVKQTPGKGLTWMGWINTDSGVPTYADDFKRRFAFSLEASATTAYLQINNLKNEDTATYFCARGGPDYWGQGTTLTVSS
VL: DILLTQSPATLSVTPGETVSLSCRASQSIYKNLHWYHQKSHRSPRLLIKYASDSISGIPSRFTGSGSGTNFTLSINSVKPEDEGIYYCLQGYIVPLTFGAGTKLELKR
notes: Human-murine chimeric IgG1, kappa
In the case of B3, the binding result in assay [1] is “no binding”.

B4: F1.60.9 (antibody, human IgG1, kappa, V domains shown)
VH: QVQLKESGPGLVAPSQSLSITCTVSGLSLNNYGVSWVRQPPGKGLEWLGVIWGDGSTNYHSALISRLSISKDNSKSQVFLKLNSLHTDDTATYYCAINWGDYWGQGTTLIVSS
VL: DIKMTQSPSSMNASLGERVTITCKASQDINSYLSWFQQKPGKSPKILIYRANRLIDGVPSRFSGSGSGQDYSLTISSLEYEDMGIYYCLQYGVFPLTFGAGTKLELKR
notes: as for B3
Take B4: in assay [2], the binding result is listed as “no binding (tested: 10 nM)”.

The values are drawn from US20240084003A1 (SIMCERE ZAIMING PHARMACEUTICAL, published 2024).
